Laboratory results from IntAct's records for PubMed 18614016.

B1: Tyrosine-protein kinase CSK (Homo sapiens), P41240 (parent)
chain: MSAIQAAWPSGTECIAKYNFHGTAEQDLPFCKGDVLTIVAVTKDPNWYKAKNKVGREGIIPANYVQKREGVKAGTKLSLMPWFHGKITREQAERLLYPPETGLFLVRESTNYPGDYTLCVSCDGKVEHYRIMYHASKLSIDEEVYFENLMQLVEHYTSDADGLCTRLIKPKVMEGTVAAQDEFYRSGWALNMKELKLLQTIGKGEFGDVMLGDYRGNKVAVKCIKNDATAQAFLAEASVMTQLRHSNLVQLLGVIVEEKGGLYIVTEYMAKGSLVDYLRSRGRSVLGGDCLLKFSLDVCEAMEYLEGNNFVHRDLAARNVLVSEDNVAKVSDFGLTKEASSTQDTGKLPVKWTAPEALREKKFSTKSDVWSFGILLWEIYSFGRVPYPRIPLKDVVPRVEKGYKMDAPDGCPPAVYEVMKNCWHLDAAMRPSFLQLREQLEHIKTHELHL

Variants of: B1
Details: with src_chick SRC

Row | Variant | effect of a mutation on the interaction
1 | R384A | decreasing interaction
2 | R281A | decreasing interaction
3 | R389A | decreasing interaction

Results, then the variant that gave them:

Row | effect of a mutation on the interaction | Variant
4 | decreasing interaction | R283A
5 | decreasing interaction | R279A
